Measurements as given in paper PMC10673952 (2023).

Experiments:
FimI = biological target: T1, FimI (E. coli W3110, UniProt P39264 20-179); experiment: 37 °C, excess FimC
T1 chain: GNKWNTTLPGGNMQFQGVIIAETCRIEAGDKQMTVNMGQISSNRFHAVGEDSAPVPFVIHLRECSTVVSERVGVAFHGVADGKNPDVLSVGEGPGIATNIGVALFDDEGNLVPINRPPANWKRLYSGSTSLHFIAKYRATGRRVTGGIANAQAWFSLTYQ

[1] = biological target: T2, FimI-FimAtHis (the two subunits of the ternary FimCHisIA complex) (E. coli W3110 | E. coli, UniProt P39264 20-179; P04128 37-182); experiment: 37 °C, excess FimC; printed as 0.18 h-1
T2 chain 1: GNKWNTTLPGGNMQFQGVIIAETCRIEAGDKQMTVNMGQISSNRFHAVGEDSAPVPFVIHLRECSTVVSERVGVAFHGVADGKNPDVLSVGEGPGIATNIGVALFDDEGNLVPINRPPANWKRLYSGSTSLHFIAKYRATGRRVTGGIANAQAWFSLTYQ
T2 chain 2: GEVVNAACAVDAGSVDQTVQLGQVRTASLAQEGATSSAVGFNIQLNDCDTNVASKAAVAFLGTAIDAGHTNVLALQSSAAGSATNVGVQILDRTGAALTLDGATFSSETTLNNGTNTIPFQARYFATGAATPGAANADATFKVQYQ

FimFt = biological target: T3, FimFt (E. coli); experiment: 37 °C, excess FimC; printed as 0.44 h-1
T3 chain: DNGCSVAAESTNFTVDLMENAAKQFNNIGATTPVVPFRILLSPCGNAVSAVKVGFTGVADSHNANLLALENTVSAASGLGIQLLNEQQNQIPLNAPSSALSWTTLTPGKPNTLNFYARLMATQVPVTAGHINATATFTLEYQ

[2] = biological target: T4, FimF-FimGt (the two subunits of the ternary FimCHisFG complex) (E. coli, UniProt P08189 21-176; P08190 24-167); experiment: 37 °C, excess FimC; printed as 0.49 h-1
T4 chain 1: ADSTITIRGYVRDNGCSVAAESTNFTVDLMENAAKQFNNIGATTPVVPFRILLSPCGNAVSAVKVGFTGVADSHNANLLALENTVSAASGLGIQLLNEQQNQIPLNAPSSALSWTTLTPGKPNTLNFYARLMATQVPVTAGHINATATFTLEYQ
T4 chain 2: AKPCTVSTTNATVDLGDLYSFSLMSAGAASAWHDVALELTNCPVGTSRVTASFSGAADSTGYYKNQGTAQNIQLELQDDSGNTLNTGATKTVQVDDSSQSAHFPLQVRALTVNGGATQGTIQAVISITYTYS

B1: FimCHis (FimC with C-terminal hexahistidine tag) (natural protein)
chain: GVALGATRVIYPAGQKQEQLAVTNNDENSTYLIQSWVENADGVKDGRFIVTPPLFAMKGKKENTLRILDATNNQLPQDRESLFWMNVKAIPSMDKSKLTENTLQLAIISRIKLYYRPAKLALPPDQAAEKLRFRRSANSLTLINPTPYYLTVTELNAGTRVLENALVPPMGESTVKLPSDAGSNITYRTINDYGALTPKMTGVME
Q: With B1 as the binder, how does the koff (FimI) read?
A: 0.011 s⁻¹

Q: And the koff [1]?
A: 5e-05 s⁻¹

Q: And the koff (FimFt)?
A: 0.000122 s⁻¹

Q: And the koff [2]?
A: 0.000136 s⁻¹
